The record followed here is patent US20230399403A1 (BIONTECH, published 2023).

The labels stand for the following.
B1: MAB-19-0598 (antibody, IgG1, V domains shown)
VH: QVQLVESGGDVVKPGRSLRLSCKASGIDFSSVYYMCWVRQAPGKGLEWIACIYVGSSGVSYYATWAKGRFTISRDTSTSTLFLQMNSLRAGDTATYYCARAGYVGAVYVTLTRLDLWGQGTLVTVSS
VL: DIQMTQSPSSLSASVGGTVTITCQSSQSIYTNNDLAWYQQKPGQPPKLLIYDASKLASGVPSRFSGSGSGTQFTLTISSLQSEDAATYYCLGGYDDDADNAFGGGTEVVVK
notes: Recombinant humanized hIgG1-LALA antibody
B2: MAB-19-0583 (antibody, IgG1, V domains shown)
VH: B1 VH
VL: DVVMTQSPSTVSASVGDRVTLTCQSSQSIYTNNDLAWYQQKPGQPPKLLIYDASKLASGVPDRFSGSGSGTDFTLTISSLQADDFATYYCLGGYDDDADNAFGQGTKVEIK
notes: as for B1
B3: MAB-19-0594 (antibody, IgG1, V domains shown)
VH: EVQLEESGGGLVKPGGSLRLSCAASGIDFSSVYYMCWVRQAPGKGLEWVSCIYVGSSGVSYYATWAKGRFTISRDNSKNTLYLQMNSLRAEDTAVYYCARAGYVGAVYVTLTRLDLWGRGTLVTVSS
VL: B1 VL
notes: as for B1
B4: MAB-19-0202 (antibody, V domains shown)
VH: QSVEESGGRLVTPGTPLTLTCTVSGFSLYSYNMGWVRQAPGKGLEYIGIISGGTIGHYASWAKGRFTISKTSSTTVDLKMTSLTTEDTATYFCARAFYDDYDYNVWGPGTLVTVSS
VL: AAVLTQTPSPVSAAVGGTVTISCQSSQSVYGNNQLSWYQQKPGQPPKLLIYQASKLETGVPSRFKGSGSGTQFTLTISDLESDDAATYYCAGGYSSSSDTTFGGGTEVVVK
notes: Chimeric rabbit/human antibody: rabbit variable regions cloned N-terminal of human IgG1 / kappa constant parts with L234A and L235A (LALA)
B5: MAB-19-0603 (antibody, IgG1, V domains shown)
VH: QVQLVESGGGLVQPGTSLRLSCSVSGFSLYSYNMGWVRQAPGKGLEYIGIISGGTIGHYASWAKGRFTISRDTSKTTLYLQMNSLTTEDTATYFCARAFYDDYDYNVWGPGTLVTVSS
VL: DIVMTQSPSSLSASVGDRVTITCQSSQSVYGNNQLSWYQQKPGKAPKLLIYQASKLETGVPSRFSGSGSGTDFTLTISSLQPEDFATYYCAGGYSSSSDTTFGGGTKVVIK
notes: as for B1
B6: MAB-19-0613 (antibody, IgG1, V domains shown)
VH: B5 VH
VL: B5 VL with V3Q, Q40K, K44Q, G104P, V109D
notes: as for B1
B7: MAB-19-0618 (antibody, IgG1, V domains shown)
VH: B5 VH
VL: AIQLTQSPSSLSASVGGTVTITCQSSQSVYGNNQLSWYQQKPGQPPKLLIYQASKLETGVPSRFRGSGSGTQFTLTISSLQSEDFATYYCAGGYSSSSDTTFGGGTEVVVK
notes: as for B1
B8: MAB-19-0608 (antibody, IgG1, V domains shown)
VH: B5 VH
VL: B5 VL with V3Q, S10T, D72Q, E83D, T87S, G104Q, V109E
notes: as for B1
B9: MAB-19-0233 (antibody, human IgG1, V domains shown)
VH: QSLEESGGDLVKPGASLTLTCKASGIDFSSVYYMCWVRQAPGKGLEWIACIYVGSSGVSYYATWAKGRFTISKTSSTTVTLQMTSLTAADTATYFCARAGYVGAVYVTLTRLDLWGQGTLVTVSS
VL: AAVLTQTPSPVSAAVGGTVTISCQSSQSIYTNNDLAWYQQKPGQPPKLLIYDASKLASGVPSRFSGSGSGTQFTLTISGVQSDDAATYYCLGGYDDDADNAFGGGTEVVVK
notes: Chimeric rabbit/human antibody, human IgG1 constant parts with L234A and L235A (LALA)
B10: MAB-19-0223 (antibody, human IgG1, V domains shown)
VH: QEHLVESGGGLVQPEGSLTLTCKASGIDFSDTYWICWVRQPPGKGLEWIGCIGIGGSGSTYYAGWAKGRFTISKTSSTTVTLQMTTLTDADTATYFCATEIPYFNVWGPGTLVTVSS
VL: AQVLTQTPSSVSAAVGGTVTINCQSSQSVYNKNWLAWYQQKPGQPPKLLIYDASKLTSGVPSRFKGSGSGTQFTLTISGVQSDDAATYYCQGTYDVNGWLVAFGGGAEVVVK
notes: Chimeric rabbit/human antibody, human IgG1 constant parts with L234A and L235A (LALA); also called chimeric anti-PD-1 MAB-19-0223
B11: MAB-19-0208 (antibody, human IgG1, V domains shown)
VH: QSVEESGGRLVTPGTPLTLTCTVSGFSLSRYYISWVRQAPGKGLEWIGSFYADSGTTWYATWVKGRFTFSTASSTTVDLKMTSPTTEDTATYFCARNSGDAQFNIWGPGTLVTVSS
VL: AAVLTQTPSPVSAAVGGTVSISCQSSESVYNKNQLCWYQQKPGQRPKLLIYDASTLASGVPSRFSGSGSGTQFTLTISDVQSDAAATYYCAGGYSVTSDTTFGGGTEVVVR
notes: Chimeric rabbit/human antibody, human IgG1 constant parts with L234A and L235A (LALA); also called chimeric anti-PD-1 MAB-19-0208
B12: MAB-19-0217 (antibody, human IgG1, V domains shown)
VH: QSVEESGGRLVTPGTPLTLTCTVSGFSLSRYYMTWVRQAPGKGLEWIGIIYPDTGTTWYASWVKGRFTFSKTSSTTVDLKMTSPTTEDTATYFCARSTTDAQFNIWGPGTLVTVSS
VL: B11 VL with S28N, N31T, K32D, D79G, A84D, V96T, R111K
notes: Chimeric rabbit/human antibody, human IgG1 constant parts with L234A and L235A (LALA); also called chimeric anti-PD-1 MAB-19-0217
B13: RiboMab-19-0233 (antibody, V domains shown)
VH: B9 VH
VL: B9 VL
notes: Tested as HEK293T/17 supernatant, concentration not determined

Changes are numbered by the printed parent chain. Names and notes keep the numbering of the source.

T2 sequence (Q15116 25-170, change not shown): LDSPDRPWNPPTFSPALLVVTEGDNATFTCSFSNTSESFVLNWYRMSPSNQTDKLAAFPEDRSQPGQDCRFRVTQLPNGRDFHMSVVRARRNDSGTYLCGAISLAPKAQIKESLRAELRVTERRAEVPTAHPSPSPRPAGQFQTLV

The target in one test is T1, full-length human PD-1 expressed on cells (human, UniProt Q15116 25-288). Kind of test: cell-based or functional assay.
T1 sequence (Q15116 25-288 limits assumed): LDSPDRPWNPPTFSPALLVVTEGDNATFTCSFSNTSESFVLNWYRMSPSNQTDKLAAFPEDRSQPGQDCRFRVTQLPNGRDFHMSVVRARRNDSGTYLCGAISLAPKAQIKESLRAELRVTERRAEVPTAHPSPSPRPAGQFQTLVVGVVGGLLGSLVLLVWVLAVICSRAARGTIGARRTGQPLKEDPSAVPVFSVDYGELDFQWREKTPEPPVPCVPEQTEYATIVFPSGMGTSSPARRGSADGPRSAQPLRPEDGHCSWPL
For B1, the “hPD-1 blockade assay IC50” value came to 368 ng/mL.
Consider B2, for which the “hPD-1 blockade assay IC50” value worked out at 188 ng/mL.
On to B3, for which the “hPD-1 blockade assay IC50” value came to 311 ng/mL.
Take B4: the “hPD-1 blockade assay IC50” value was found to be 56 ng/mL.
For the molecule B5, the “hPD-1 blockade assay IC50” value came to 85 ng/mL.
Turning to B6, the “hPD-1 blockade assay IC50” value came to 93 ng/mL.
For B7, the “hPD-1 blockade assay IC50” value came to 57 ng/mL.
On to B8, for which the “hPD-1 blockade assay IC50” value came to 63 ng/mL.

Another test addresses T1, full-length human PD-1 expressed on …. Description: cell binding, HEK-293 cells expressing full-length human PD-1, CellInsight CX5 imaging. The method, then:
(§1) Binding of chimeric and humanized anti-PD-1 antibodies to cell surface expressed hPD-1 was analyzed using HEK-293 cells ectopically expressing full-length human-PD1 (BPS Biosciences; Cat. No. 60680). Cell cultures were grown in MEM containing 10% FCS, ix MEM NEAA, 1 mM Na pyruvate and 100 μg/mL Hygromycin B. Hygromycin B was omitted when cells were plated for testing antibody binding. 1,000 cells in 20 μL medium were seeded per well in black 384-well cell-culture treated plates with clear bottom and were incubated for 2 hours at 37° C. and 5% CO₂. Anti-PD-1 antibodies were added in 5 μL medium to final concentrations ranging from 1,000 to 0.06 ng/mL or 620 to 0.45 ng/mL. […] After an 18 hours incubation at 37° C. and 5% CO₂, plates were washed once with 25 μL PBS, 0.05% Tween 20 (cell wash buffer) and Alexa-Fluor-488-conjugated AffiniPure goat-anti-human-IgG F(ab′)₂ fragment (Vendor) was added at a concentration of 0.8 μg/mL in 20 μL medium. Plates were incubated for 4 hours at 37° C. and 5% CO₂ in the dark, washed once with 25 μL cell wash buffer and incubated for 10 minutes with 20 μL medium containing 5 μg/ml Hoechst (Invitrogen). Cell-associated immunofluorescent signals were recorded using a CellInsight CX5 high content imager device (Thermo Fisher). Data was fitted with a 4-parameter logistic model and EC50 values calculated using GraphPad Prism 8.4.3.
The molecule B9 gave a half-maximal effective concentration (EC50) of 16.8 ng/mL.
Turning to B10, the half-maximal effective concentration (EC50) came out at 7 ng/mL.
On to B11, for which the EC50 turned out to be 13.9 ng/mL.
In turn, B12 had an EC50 of 6.3 ng/mL.

Another test has the same target. The test is described as above. This is another data set of the same source. The method, then: as §1
B1: the 50% effective concentration (EC50) worked out at 5.7 ng/mL.
For B2, a half-maximal response (EC50) required 3.6 ng/mL.
Turning to B3, the EC50 was 9.5 ng/mL.
For the molecule B9, a half-maximal response (EC50) required 2.4 ng/mL.
The molecule B4 had an EC50 of 0.5 ng/mL.
Molecule B5 showed an EC50 of 2.8 ng/mL.
Take B6: the EC50 turned out to be 1.2 ng/mL.
On to B7, for which the EC50 came to 1.7 ng/mL.
B8: it took 2.8 ng/mL to reach a half-maximal effect (EC50).

The next test addresses T2, Recombinant human PD-1 human-FC Chimera (R&D Systems) (human, UniProt Q15116 25-170).
T2 construct: Bought construct; also called recombinant human-PD-1 extracellular domain; hPD-1 (ELISA); not shown: human Fc part of the bought chimera
Kind of test: ELISA, coated recombinant human PD-1 human-Fc chimera. The method, then: (§2) The binding potency of chimeric and humanized anti-PD-1 antibodies to recombinant human-PD-1 extracellular domain was determined by ELISA. Recombinant human PD-1 human-FC Chimera (R&D Systems) was coated on 384-well MaxiSorp™ flat bottom plates (Nunc) at a concentration of 0.625 μg/mL in PBS (Vendor) for 60 minutes at room temperature. Coated plates were washed three times with PBS, 0.1% Tween (PBS-T), blocked by incubation with PBS, 2% BSA, 0.05% Tween for 60 minutes at room temperature, and washed for an additional three times with PBS-T. Anti-PD-1-antibodies were added in PBS, 0.5% BSA, 0.05% Tween (ELISA buffer) in concentrations ranging from 1,000 to 0.06 ng/mL or 2,500 to 0.15 ng/mL and the plate was incubated for 60 minutes at room temperature. […] After 3 washes with PBS-T, horseradish peroxidase coupled goat-anti-human-IgG (Fab′)₂ fragment (AbD Serotec; Cat. No. STAR126P) was added in ELISA buffer at a dilution of 1:5,000. The plate was incubated for 60 minutes at room temperature, and washed 6 times with PBS-T before TMB solution (Thermo Fisher Scientific) was added. After 10 minutes HCl was added and the absorbance at wavelengths of 450 and 620 nm recorded using a Tecan Infinite M1000 reader. Data was fitted with a 4-parameter logistic model and EC50 values calculated using GraphPad Prism 8.4.3 (GraphPad Software, San Diego, CA, USA).
Turning to B9, the concentration giving a half-maximal response (EC50) came out at 6.3 ng/mL.
Consider B10, for which the half-maximal effective concentration (EC50) turned out to be 6.6 ng/mL.
Turning to B11, the 50% effective concentration (EC50) was determined as 4 ng/mL.
Regarding B12, the 50% effective concentration (EC50) is 9.2 ng/mL.
B4: the EC50 is 3.5 ng/mL.

A further test deals with T1, full-length human PD-1 expressed on …. Description: flow cytometry, K562 cells electroporated with full-length human PD-1 mRNA, dilutions of RiboMab-containing supernatant.
Description: 20×10⁶ cells K562 cells growing in log-phase were used for electroporation of full-length human PD-1. Cells in 250 μL X-Vivo 15 medium (LONZA Technologies, cat. no. BE02-060F) were combined in 4 mm gap cuvettes with 10 μg human PD-1-encoding IVT-mRNA. Cells were immediately electroporated with a BTX ECM830 (BTX Harvard Apparatus) with the following setting: 200 V, 3 pulses, 8 ms.
Binding of RiboMabs to K562 cells expressing PD-1 was analyzed by flow cytometry. […] Cells were washed twice with FACS buffer, re-suspended in 60 μL FACS buffer and analyzed on a BD FACSCanto™ II flow cytometer (BD Biosciences). Binding curves were analyzed by non-linear regression (log(agonist) vs. response—variable slope (four parameters)) using GraphPad Prism V9.1.0 software.
Regarding B13, the “fold difference in EC50 values (RiboMab-19-0233 against RiboMab-19-0202)” value was roughly 2.5 fold.

For another test, the target named is T2, Recombinant human PD-1 human-FC Chimera …. Description: ELISA, coated recombinant human PD-1 human-Fc chimera. The source holds these as a separate data set. The method, then: as §2
Consider B1, for which the EC50 was found to be 8.8 ng/mL.
As to B2, the EC50 was found to be 7.5 ng/mL.
For the molecule B3, the EC50 amounted to 14.6 ng/mL.
For the molecule B9, the EC50 was found to be 7.2 ng/mL.
Still for that read-out and setting: under B4 stands 4 ng/mL; under B5, 3.3 ng/mL.
As to B6, the EC50 came to 4.4 ng/mL.
With B7, the concentration giving a half-maximal response (EC50) was determined as 8 ng/mL.
With B8, the half-maximal effective concentration (EC50) is 7.7 ng/mL.

The next test concerns the target T1, full-length human PD-1 expressed on …. Description: cell-based or functional assay. This is another data set of the same source.
B9: the “hPD-1 blockade assay IC50” value amounted to 657 ng/mL.
As to B10, the “hPD-1 blockade assay IC50” value stood at 913 ng/mL.
The same measure, in the same setting: under B11 stands 870 ng/mL.
Turning to B12, the “hPD-1 blockade assay IC50” value amounted to 720 ng/mL.
As for B4, the “hPD-1 blockade assay IC50” value worked out at 324 ng/mL.
